Experiments:
[1] = target: T1, AfAGM1 (A. fumigatus N-acetylphosphoglucosamine mutase) (Aspergillus fumigatus, UniProt Q4WJF0, DEL85-101); experiment: enzyme inhibition kinetics, Lineweaver–Burk plot; format: biochemical
T1 construct: gene AFUA_1G06210; deletion of VSSYGTFDGGMKGEFAD, residues 85–101 of XP_750370 (likely alternative splicing); GST tag cleaved; pSer69

[2] = target: T1, AfAGM1 (A. fumigatus N-acetylphosphoglucosamine mutase); experiment: direct HPAEC-PAD enzyme assay, […] Glc-1P; format: biochemical
[3] = system: O=P(O)(O)O[C@H]1O[C@H](CO)[C@@H](O)[C@H](O)[C@H]1O; experiment: purified protein; details: Mg2+
[4] = system: CC(=O)N[C@H]1C(O)O[C@H](COP(=O)(O)O)[C@@H](O)[C@@H]1O; experiment: purified protein; details: Mg2+

T1 sequence (Q4WJF0 entry or part of it DEL85-101): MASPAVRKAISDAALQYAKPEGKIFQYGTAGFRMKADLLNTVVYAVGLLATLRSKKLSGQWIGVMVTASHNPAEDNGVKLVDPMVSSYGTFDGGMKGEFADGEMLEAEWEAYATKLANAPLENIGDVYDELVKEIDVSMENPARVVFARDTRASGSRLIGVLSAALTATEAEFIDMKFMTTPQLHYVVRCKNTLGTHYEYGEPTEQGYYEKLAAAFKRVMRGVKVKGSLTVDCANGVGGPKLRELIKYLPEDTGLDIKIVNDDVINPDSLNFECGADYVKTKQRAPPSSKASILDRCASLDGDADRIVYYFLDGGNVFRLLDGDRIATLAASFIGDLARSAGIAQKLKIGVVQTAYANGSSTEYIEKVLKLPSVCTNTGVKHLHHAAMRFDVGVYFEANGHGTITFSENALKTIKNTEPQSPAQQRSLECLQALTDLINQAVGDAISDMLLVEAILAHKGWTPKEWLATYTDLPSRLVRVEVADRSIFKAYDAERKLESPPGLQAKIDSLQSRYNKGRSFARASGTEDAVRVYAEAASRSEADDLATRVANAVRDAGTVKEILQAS

Question: Which Ki [1] does the source give for `Nc1ccc(O)c2c1C(=O)c1c(O)ccc(N)c1C2=O` [compound 1, 1,5-diamino-4,8-dihydroxyanthraquinone] here?
Answer: Its Ki is 300 ± 13 µM.

Question: Which IC50 [2] does the source give for `Cc1nc(/N=N/c2ccc(C(=O)O)cc2)c(COP(=O)(O)O)c(C=O)c1O` [compound 4, tri-sodium 4-[(2z)-2-[4-formyl-6-metyl-5-oxo-3-(phosphonatooxymetyl)-pyridin-2-ylidene] hydrazinyl] benzoate] here?
Answer: The IC50 was 7.1 ± 0.2 µM.

Question: Which results are given for “AfAGM1 (A. fumigatus N-acetylphosphoglucosamine mutase) (Aspergillus fumigatus Af293; DEL85-101)”?
Answer: Km [3]: 1200 ± 100 µM; kcat [3]: 37.6 s⁻¹; kcat/Km [3]: 31300 M⁻¹ s⁻¹; Km [4]: 25 ± 8 µM; kcat [4]: 0.21 s⁻¹; kcat/Km [4]: 8400 M⁻¹ s⁻¹

Question: `NC(Cc1cc(O)c(O)cc1O)C(=O)O` (racemic) [compound 3, 6-hydroxy-DL-DOPA] was tested. Which IC50 [2] did it give?
Answer: Its IC50 is 58 ± 4 µM.
